Assay results: US20230002480A1

How the values were obtained:
Assay in all cases: cell-based or functional assay
[1] = biological target: HIV-1 Env of pseudovirus HIV-0013095-2.11 (HIV-1)
[2] = biological target: HIV-1 Env of pseudovirus BJOX009000.02.4 (HIV-1)
[3] = biological target: HIV-1 Env of pseudovirus AC10.0.29 (HIV-1)
[4] = biological target: HIV-1 Env of pseudovirus WEAU_d15_410_787 (HIV-1)
[5] = biological target: HIV-1 Env of pseudovirus X2088_c9 (HIV-1)
[6] = biological target: HIV-1 Env of pseudovirus ZM247v1(Rev-) (HIV-1)
[7] = biological target: HIV-1 Env of pseudovirus Ce1172_H1 (HIV-1)
[8] = biological target: HIV-1 Env of pseudovirus X1254_c3 (HIV-1)
[9] = biological target: HIV-1 Env of pseudovirus CAAN5342.A2 (HIV-1)
[10] = biological target: HIV-1 Env of pseudovirus PVO.4 (HIV-1)
[11] = biological target: HIV-1 Env of pseudovirus 235-47 (HIV-1)
[12] = biological target: HIV-1 Env of pseudovirus MS208.A1 (HIV-1)
[13] = biological target: HIV-1 Env of pseudovirus Q461.e2 (HIV-1)
[14] = biological target: HIV-1 Env of pseudovirus ZM135M.PL10a (HIV-1)
[15] = biological target: HIV-1 Env of pseudovirus 1054_07_TC4_1499 (HIV-1)
[16] = biological target: HIV-1 Env of pseudovirus CNE53 (HIV-1)
[17] = biological target: HIV-1 Env of pseudovirus T250-4 (HIV-1)
[18] = biological target: HIV-1 Env of pseudovirus 0815.v3.c3 (HIV-1)
[19] = biological target: HIV-1 Env of pseudovirus 263-8 (HIV-1)
[20] = biological target: HIV-1 Env of pseudovirus CAP45.2.00.G3 (HIV-1)
[21] = biological target: HIV-1 Env of pseudovirus 6240_08_TA5_4622 (HIV-1)
[22] = biological target: HIV-1 Env of pseudovirus C4118.c09 (HIV-1)
[23] = biological target: HIV-1 Env of pseudovirus ZM233M.PB6 (HIV-1)
[24] = biological target: HIV-1 Env of pseudovirus 6535.3 (HIV-1)
[25] = biological target: HIV-1 Env of pseudovirus Ce704809221_1B3 (HIV-1)
[26] = biological target: HIV-1 Env of pseudovirus Q259.d2.17 (HIV-1)
[27] = biological target: HIV-1 Env of pseudovirus P0402_c2_11 (HIV-1)
[28] = biological target: HIV-1 Env of pseudovirus CNE20 (HIV-1)
[29] = biological target: HIV-1 Env of pseudovirus RHPA4259.7 (HIV-1)
[30] = biological target: HIV-1 Env of pseudovirus 191955_A11 (HIV-1)
[31] = biological target: HIV-1 Env of pseudovirus T278-50 (HIV-1)
[32] = biological target: HIV-1 Env of pseudovirus 231966.c02 (HIV-1)
[33] = biological target: HIV-1 Env of pseudovirus CNE52 (HIV-1)
[34] = biological target: HIV-1 Env of pseudovirus Du156.12 (HIV-1)
[35] = biological target: HIV-1 Env of pseudovirus 928-28 (HIV-1)
[36] = biological target: HIV-1 Env of pseudovirus 246F C1G (HIV-1)
[37] = biological target: HIV-1 Env of pseudovirus Ce703010054_2A2 (HIV-1)

## PGT145 (antibody)
[1]
  IC50: 9.27 µg/mL
  IC80: > 50 µg/mL
[2]
  IC50, titer in TZM.bl cells: 0.117 µg/mL
  IC80, titer in TZM.bl cells: 0.745 µg/mL
[3]
  IC50: 0.01 µg/mL
  IC80: 0.025 µg/mL
[4]
  IC50: 1.95 µg/mL
  IC80: 31.5 µg/mL
[5]
  IC50, titer in TZM.bl cells: > 50 µg/mL
  IC80, titer in TZM.bl cells: > 50 µg/mL
[6]
  IC50: 7.19 µg/mL
  IC80: > 50 µg/mL
[7]
  IC50: 0.26 µg/mL
  IC80: 2.06 µg/mL
[8]
  IC50, titer in TZM.bl cells: 5.6 µg/mL
  IC80, titer in TZM.bl cells: > 50 µg/mL
[9]
  IC50: 6.67 µg/mL
  IC80: 25.5 µg/mL
[10]
  IC50: 0.192 µg/mL
  IC80: 0.87 µg/mL
[11]
  IC50, titer in TZM.bl cells: 3.21 µg/mL
  IC80, titer in TZM.bl cells: 36 µg/mL
[12]
  IC50: 0.334 µg/mL
  IC80: 18 µg/mL
[13]
  IC50: 7.8 µg/mL
  IC80: > 50 µg/mL
[14]
  IC50: > 50 µg/mL
  IC80: > 50 µg/mL
[15]
  IC50: > 50 µg/mL
  IC80: > 50 µg/mL
[16]
  IC50: 0.006 µg/mL
  IC80: 0.084 µg/mL
[17]
  IC50: 0.002 µg/mL
  IC80: 0.039 µg/mL
[18]
  IC50, titer in TZM.bl cells: > 50 µg/mL
  IC80, titer in TZM.bl cells: > 50 µg/mL
[19]
  IC50: 32.1 µg/mL
  IC80: > 50 µg/mL
[20]
  IC50: 0.001 µg/mL
  IC80: 0.007 µg/mL
[21]
  IC50: > 50 µg/mL
  IC80: > 50 µg/mL
[22]
  IC50, titer in TZM.bl cells: < 0.001 µg/mL
  IC80, titer in TZM.bl cells: 0.004 µg/mL
[23]
  IC50: 0.025 µg/mL
  IC80: 0.68 µg/mL
[24]
  IC50: > 50 µg/mL
  IC80: > 50 µg/mL
[25]
  IC50: 0.102 µg/mL
  IC80: 0.71 µg/mL
[26]
  IC50: 44.2 µg/mL
  IC80: > 50 µg/mL
[27]
  IC50, titer in TZM.bl cells: 0.009 µg/mL
  IC80, titer in TZM.bl cells: 0.038 µg/mL
[28]
  IC50: 0.318 µg/mL
  IC80: 6.97 µg/mL
[29]
  IC50: 0.029 µg/mL
  IC80: 0.095 µg/mL
[30]
  IC50: < 0.001 µg/mL
  IC80: < 0.001 µg/mL
[31]
  IC50, titer in TZM.bl cells: 10.3 µg/mL
  IC80, titer in TZM.bl cells: > 50 µg/mL
[32]
  IC50, titer in TZM.bl cells: < 0.001 µg/mL
  IC80, titer in TZM.bl cells: 0.01 µg/mL
[33]
  IC50: 0.02 µg/mL
  IC80: 0.091 µg/mL
[34]
  IC50: 0.001 µg/mL
  IC80: 0.018 µg/mL
[35]
  IC50: > 50 µg/mL
  IC80: > 50 µg/mL
[36]
  IC50: > 50 µg/mL
  IC80: > 50 µg/mL
[37]
  IC50: > 50 µg/mL
  IC80: > 50 µg/mL
